Patent US20250011363A1, “OPTIMIZED SHORTENED PEPTIDE THAT BINDS TO ACETYLCHOLINE RECEPTOR, AND USE THEREOF” (SKINMED CO., LTD., priority 2021, published 2025)

Each binder was assayed against acetylcholine receptor (assay: SPR, AchR immobilised on chip, peptide at 10 uM).

Compared with KLLRK [5mer-254], RGVCK [5mer-256] is lower in Binding affinity (RU): 87 RU for the first, 60 RU for the second.

Compared with RVIYK [5mer-556], KGYQR [5mer-272] is higher in Binding affinity (RU): 52 RU for the first, 83 RU for the second.

First: RWQCR [5mer-265]
Second: KWYQR [5mer-560]
The Binding affinity (RU) of the first is higher: 77 RU for the first, 59 RU for the second.

Going from KVQCK [5mer-555] to RSYCR [5mer-249], the Binding affinity (RU) falls from 71 RU to 52 RU.

Compared with KQITR [5mer-568], RVRQR [5mer-562] is higher in Binding affinity (RU): 64 RU for the first, 70 RU for the second.

Going from RSRYR [5mer-564] to KRYCK [5mer-268], the Binding affinity (RU) falls from 74 RU to 54 RU.

Going from RQFTR [5mer-257] to KSRCR [5mer-262], the Binding affinity (RU) falls from 85 RU to 59 RU.

Compared with RRVLR [5mer-261], RSIYR [5mer-573] is higher in Binding affinity (RU): 59 RU for the first, 84 RU for the second.

Compared with RRLTK [5mer-571], KQRTR [5mer-255] is higher in Binding affinity (RU): 51 RU for the first, 82 RU for the second.

Going from RSLYR [5mer-253] to RLFLR [5mer-269], the Binding affinity (RU) rises from 75 RU to 85 RU.

Going from KSYQK [5mer-266] to KLVRR [5mer-570], the Binding affinity (RU) falls from 66 RU to 56 RU.

Going from KLRTK [5mer-572] to KQLYK [5mer-566], the Binding affinity (RU) rises from 58 RU to 78 RU.

Going from RSQQR [5mer-270] to RVQSK [5mer-273], the Binding affinity (RU) rises from 52 RU to 82 RU.

Going from KWYRK [5mer-264] to RLLSK [5mer-554], the Binding affinity (RU) rises from 50 RU to 65 RU.

Going from RLYSR [5mer-552] to RLIRK [5mer-259], the Binding affinity (RU) rises from 63 RU to 71 RU.

Going from RGRYR [5mer-271] to KWRCK [5mer-561], the Binding affinity (RU) rises from 68 RU to 72 RU.

Going from RLVLK [5mer-563] to KVYRR [5mer-260], the Binding affinity (RU) falls from 60 RU to 57 RU.

Going from KQQLK [5mer-559] to KRQYK [5mer-258], the Binding affinity (RU) rises from 81 RU to 84 RU.

First: KLLSR [5mer-553]
Second: RWRYK [5mer-558]
The Binding affinity (RU) of the first is lower: 72 RU for the first, 84 RU for the second.

First: RLVSK [5mer-565]
Second: KQRRK [5mer-557]
The Binding affinity (RU) of the first is lower: 77 RU for the first, 87 RU for the second.

Compared with RRYCK [5mer-567], RQQSR [5mer-550] is higher in Binding affinity (RU): 63 RU for the first, 83 RU for the second.

Compared with KRISK [5mer-251], RQFSR [5mer-250] is higher in Binding affinity (RU): 70 RU for the first, 76 RU for the second.

Going from KQVTR [5mer-263] to RQQRK [5mer-569], the Binding affinity (RU) falls from 80 RU to 79 RU.

Going from KRLLK [5mer-267] to KQYRK [5mer-252], the Binding affinity (RU) falls from 66 RU to 53 RU.

First: KVYTR [5mer-275]
Second: KGFTR [5mer-574]
The Binding affinity (RU) of the first is higher: 64 RU for the first, 59 RU for the second.

First: RQVRK [5mer-274]
Second: RWQYR [5mer-551]
The Binding affinity (RU) of the first is higher: 62 RU for the first, 59 RU for the second.

Compared with RWVSKK [6mer-2-331], KVILRR [6mer-2-334] is lower in Binding affinity: 148 RU for the first, 146 RU for the second.

First: RRQYKK [6mer-2-332]
Second: KRFRRK [6mer-2-333]
The Binding affinity of the first is higher: 145 RU for the first, 139 RU for the second.

Binder KWITK [5mer-549] has an SPR binding response of 78 RU.
